Test results taken from patent US20200299408A1 (Genentech, published 2020).
Where a chain is given by its changes, count along the chain named. In names and notes the source's numbering stands.

B1: 38E4 (antibody, IgG3, V domains shown)
VH: QVQLQQSGPELVKPGASVTISCTASGFTFTSYYIHWVRQRPGQGLEWIGWIYPENDNTKYNEKFKDKATLTADTSSSTAYMQLSSLTSEDSAVYYCARDGYSRYYFDYWGQGTTLTVSS
VL: DIVMTQSPSFLAVSAGEKVTMSCKSSQSLLNSRTRKNYLAWYQQRPGQSPKLLIYWTSTRKSGVPDRFTGSGSGTDFTLTISSVQAEDLAIYYCKQSFILRTFGGGTKLEIK
notes: mouse hybridoma clone; also called mu38E4
B2: hu38E4.v1 H3 mutant Y102A (Fab, V domains shown)
VH: EVQLVQSGAEVKKPGASVKVSCKASGFTFTSYYIHWVRQAPGQGLEWIGWIYPENDNTKYNEKFKDRVTITADTSTSTAYLELSSLRSEDTAVYYCARDGYSRYYFDAWGQGTLVTVSS
VL: DIVMTQSPDSLAVSLGERATINCKSSQSLLNSRTRKNYLAWYQQKPGQSPKLLIYWTSTRKSGVPDRFSGSGSGTDFTLTISSLQAEDVAVYYCKQSFILRTFGQGTKVEIK
notes: copies: 1 + 1
B3: hu38E4.v1 L3 mutant K89A (Fab, V domains shown)
VH: B2 VH with A108Y
VL: B2 VL with K95A
notes: copies: 1 + 1
B4: hu38E4.v1 H3 mutant S98A (Fab, V domains shown)
VH: B2 VH with S102A, A108Y
VL: B2 VL
notes: copies: 1 + 1
B5: hu38E4.v1 H3 mutant D101A (Fab, V domains shown)
VH: B2 VH with D107A, A108Y
VL: B2 VL
notes: copies: 1 + 1
B6: hu38E4.v1 H3 mutant D95S (Fab, V domains shown)
VH: B2 VH with D99S, A108Y
VL: B2 VL
notes: copies: 1 + 1
B7: hu38E4.v1 L3 mutant F92A (Fab, V domains shown)
VH: B2 VH with A108Y
VL: B2 VL with F98A
notes: copies: 1 + 1
B8: hu38E4.v1 H3 mutant Y100A (Fab, V domains shown)
VH: B2 VH with Y104A, A108Y
VL: B2 VL
notes: copies: 1 + 1
B9: hu38E4.v1 L3 mutant I93A (Fab, V domains shown)
VH: B2 VH with A108Y
VL: B2 VL with I99A
notes: copies: 1 + 1
B10: hu38E4.v1 H3 mutant D95T (Fab, V domains shown)
VH: B2 VH with D99T, A108Y
VL: B2 VL
notes: copies: 1 + 1
B11: hu38E4.v1 L3 mutant Q90A (Fab, V domains shown)
VH: B2 VH with A108Y
VL: B2 VL with Q96A
notes: copies: 1 + 1
B12: hu38E4.v1 H3 mutant Y100aA (Fab, V domains shown)
VH: B2 VH with Y105A, A108Y
VL: B2 VL
notes: copies: 1 + 1
B13: hu38E4.v1 H3 mutant G96A (Fab, V domains shown)
VH: B2 VH with G100A, A108Y
VL: B2 VL
notes: copies: 1 + 1
B14: 13A3 (antibody, IgG2b, V domains shown)
VH: EVQLQQSGPELVKPGASVRISCKASGYTFTSYYIHWMKQRPGQGLEWIGWIYPGNVNTKYNEKFKGKATLTADNSSSTANMQLSSLTSEDSAVYFCARNHDYYFDYWGQGTTLTVSS
VL: B1 VL with M4L, F10S, R45K, T57A, K61E, I91V, F98Y
notes: mouse hybridoma clone; also called 13A3 (xCD3)
B15: 19B1 (antibody, IgG2b, V domains shown)
VH: B14 VH
VL: B1 VL with D1G, F10S, R45K, T57A, K61E, I91V, F98Y
notes: mouse hybridoma clone; also called 19B1 (xCD3)
B16: 30A1 (antibody, IgG1, V domains shown)
VH: QVQLKESGPGLVAPSQSLSITCTVSGFSLTNYAIHWVRQPPGKGLDWLGVIWAGGNTKYNSALMSRLSFSKDNSKSQVFLEINSLQTDDTAMYYCAREDSSGYVALDYWGQGTSVTVSS
VL: NIVMTQSPSSLAVSAGEKVTMSCKSSQSLLSGRTRKNYLAWYQQKPGQSPKLLIYWASTRESGVPDRFTGSGSGTDFTLTISSVQAEDLAVYYCKQSYYLLTFGAGTKLELK
notes: mouse hybridoma clone
B17: murine SP34 (antibody, V domains shown)
VH: EVQLVESGGGLVQPKGSLKLSCAASGFTFNTYAMNWVRQAPGKGLEWVARIRSKYNNYATYYADSVKDRFTISRDDSQSILYLQMNNLKTEDTAMYYCVRHGNFGNSYVSWFAYWGQGTLVTVSS
VL: QAVVTQESALTTSPGETVTLTCRSSTGAVTTSNYANWVQEKPDHLFTGLIGGTNKRAPGVPARFSGSLIGDKAALTITGAQTEDEAIYFCALWYSNLWVFGGGTKLTVL
B18: humanized SP34 variant: λ7 graft + F36V + T46G + Y49G / VH3 graft + N73D + T93V (antibody, V domains shown)
VH: B17 VH with K15G, K19R, A49G, Q78K, S79N, I80T, N87S, K89R, T90A, M95V
VL: EAVVTQEPSLTVSPGGTVTLTCRSSTGAVTTSNYANWVQQKPGQAPRGLIGGTNKRAPWTPARFSGSLLGGKAALTLSGAQPEDEAEYYCALWYSNLWVFGGGTKLTVL
B19: humanized SP34 variant: λ7 graft + F36V + Q38E + A43L + P44F + T46G + Y49G + T58V + Y87F / VH3 graft G49A + N73D + T93V (antibody, V domains shown)
VH: B17 VH with K15G, K19R, Q78K, S79N, I80T, N87S, K89R, T90A, M95V
VL: B18 VL with Q40E, A45L, P46F, T60V, Y89F
B20: humanized SP34 variant: λ7 graft + F36V + T46G + Y49G / VH3 graft + T93V (antibody, V domains shown)
VH: EVQLVESGGGLVQPGGSLRLSCAASGFTFNTYAMNWVRQAPGKGLEWVGRIRSKYNNYATYYADSVKDRFTISRDNSKNTLYLQMNSLRAEDTAVYYCVRHGNFGNSYVSWFAYWGQGTLVTVSS
VL: B18 VL
B21: humanized SP34 variant: λ7 graft + F36V + Q38E + A43L + P44F + T46G + Y49G + T58V + Y87F / VH3 graft + N73D + T93V (antibody, V domains shown)
VH: B20 VH with N76D
VL: B18 VL with Q40E, A45L, P46F, T60V, Y89F
B22: humanized SP34 variant: λ7 graft + F36V + T46G + Y49G / VH3 graft G49A + N73D + T93V (antibody, V domains shown)
VH: B20 VH with G49A, N76D
VL: B18 VL
B23: humanized SP34 variant: λ7 graft + F36V + Q38E + A43L + P44F + T46G + Y49G + T58V + Y87F / VH3 graft + G49A + T93V (antibody, V domains shown)
VH: B20 VH with G49A
VL: B18 VL with Q40E, A45L, P46F, T60V, Y89F

Target: CD3 antigen of Figures 3B and 3C (not named)
Assay: kinetic table of IgGs; method and antigen not stated

Row | Binder | Kd | koff | kon
1 | B1 | 0.0783 nM | 3.45e-05 s⁻¹ | 441000 M⁻¹ s⁻¹

Target: CD3 antigen of Figures 3B and 3C (not named)
Assay: as above
Remark: another data set of the same source

Row | Binder | Kd | koff | kon
2 | B1 | 0.95 nM | 5.32e-05 s⁻¹ | 56000 M⁻¹ s⁻¹

Target: T1, single chain human CD3ε-26mer-CD3γ (CD3εγ) (human)
T1 construct: also called human CD3εγ
T1 chain: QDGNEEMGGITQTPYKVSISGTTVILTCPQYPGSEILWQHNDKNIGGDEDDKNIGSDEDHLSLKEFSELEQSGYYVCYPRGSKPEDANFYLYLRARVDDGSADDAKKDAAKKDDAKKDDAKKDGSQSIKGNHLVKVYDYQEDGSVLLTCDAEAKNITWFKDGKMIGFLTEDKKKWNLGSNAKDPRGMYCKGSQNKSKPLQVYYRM
Assay: Biacore single cycle kinetics; KD relative to hu38E4.v1
From the text: (§1) In addition, position 95 in HVR-H3 was also mutated to serine, threonine, or glutamate. Variants with these single point mutations were expressed as Fabs in HEK293 cells and initially screened with a single cycle kinetics method on a Biacore T100. Selected variants were also scaled up and purified for a conventional multi-cycle kinetics method. For single cycle kinetics, Biacore Series S CM5 sensor chips were immobilized with anti-human Fab antibodies (Human Fab capture kit, GE Healthcare). […] For conventional multi-cycle kinetics, human CD3εγ, cyno CD3εγ, or a 27-mer peptide were immobilized on Biacore Series S CM5 sensor chip using the amine coupling kit from Biacore. Serial 3-fold dilutions of each Fab variant were injected at a flow rate of 30 μl/min. Each sample was analyzed with a protocol of 3-minute association and 3-minute dissociation. In both methods, the Biacore chips were regenerated using 10 mM Glycine (pH 1.7). Binding response was corrected by blank subtraction and a 1:1Languir model of simultaneous fitting of kₒₙ and koff was used for kinetics analysis.

Row | Binder | ratio (fold)
3 | B2 | 1.2 fold
4 | B3 | 0.7 fold
5 | B4 | 1.1 fold
6 | B5 | 7.2 fold

Target: T1, single chain human CD3ε-26mer-CD3γ …
Assay: Biacore full (multi-) cycle kinetics; KD relative to hu38E4.v1
From the text: as §1

Row | Binder | ratio (fold)
7 | B6 | 226 fold
8 | B7 | 20 fold
9 | B8 | 521 fold
10 | B9 | 5.1 fold
11 | B10 | 43 fold
12 | B11 | 29.9 fold
13 | B12 | 110 fold
14 | B13 | 2.4 fold

Target: T2, Commercial hCD3eg
T2 chain 1: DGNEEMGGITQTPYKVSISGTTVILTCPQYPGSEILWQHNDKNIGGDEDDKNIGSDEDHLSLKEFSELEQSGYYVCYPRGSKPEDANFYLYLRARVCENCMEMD
T2 chain 2: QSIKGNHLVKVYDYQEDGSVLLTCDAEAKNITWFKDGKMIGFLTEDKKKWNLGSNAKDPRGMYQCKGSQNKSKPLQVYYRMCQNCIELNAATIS
Assay: mu IgG against commercial hCD3eg; method not stated on the sheet

Row | Binder | Kd
15 | B14 | 0.6 nM
16 | B15 | 0.7 nM
17 | B16 | 0.4 nM

Target: T1, single chain human CD3ε-26mer-CD3γ …
Assay: Biacore single cycle kinetics: Fab captured by anti-human Fab, human CD3εγ injected (3-250 nM)
From the text: as §1

Row | Binder | Kd | koff | kon
18 | B2 | 4.1 nM | 0.00132 s⁻¹ | 322000 M⁻¹ s⁻¹
19 | B3 | 2.4 nM | 0.00102 s⁻¹ | 428000 M⁻¹ s⁻¹
20 | B4 | 3.8 nM | 0.00147 s⁻¹ | 385000 M⁻¹ s⁻¹
21 | B5 | 24.1 nM | 0.00342 s⁻¹ | 142000 M⁻¹ s⁻¹

Target: T3, commercial CD3ε (Creative Biomart, Catalog Number CD3E-2194H) (human, UniProt P07766)
T3 construct: commercial recombinant protein; also called commercial CD3E
Assay: binding affinity on commercial CD3ε (Creative Biomart CD3E-2194H); method not stated in the legend

Row | Binder | Kd
22 | B17 | 7 nM
23 | B18 | 3.5 nM
24 | B19 | 8 nM
25 | B20 | 15.9 nM
26 | B21 | 3.1 nM
27 | B22 | 14.5 nM
28 | B23 | 21 nM

Target: T1, single chain human CD3ε-26mer-CD3γ …
Assay: Biacore full (multi-) cycle kinetics: antigen on chip, Fab injected; antigen not named on the sheet, taken as human CD3εγ
From the text: as §1

Row | Binder | Kd | koff | kon
29 | B6 | 180 nM | 0.202 s⁻¹ | 1.12e+06 M⁻¹ s⁻¹
30 | B7 | 15.9 nM | 0.0232 s⁻¹ | 1.46e+06 M⁻¹ s⁻¹
31 | B8 | 414 nM | 0.0191 s⁻¹ | 46000 M⁻¹ s⁻¹
32 | B9 | 4 nM | 0.0124 s⁻¹ | 3.08e+06 M⁻¹ s⁻¹
33 | B10 | 34.2 nM | 0.00175 s⁻¹ | 51100 M⁻¹ s⁻¹
34 | B11 | 23.8 nM | 0.00422 s⁻¹ | 178000 M⁻¹ s⁻¹
35 | B12 | 87 nM | 0.0246 s⁻¹ | 283000 M⁻¹ s⁻¹
36 | B13 | 1.9 nM | 0.00357 s⁻¹ | 1.86e+06 M⁻¹ s⁻¹
